Reference: the Human Domainome abundance scans (Beltran et al. 2025)
± gives the uncertainty stated by the source.

B1: Nuclear receptor subfamily 4 group A member 2, residues 260 to 336; numbered along this chain, P43354 (parent)
chain: EGLCAVCGDNAACQHYGVRTCEGCKGFFKRTVQKNAKYVCLANKNCPVDKRRRNRCQYCRFQKCLAVGMVKEVVRTD

Variants of: B1
Assay: abundance fitness (aPCA) (normalised: wild type 0, dead -1); higher = more abundant; growth selection in yeast, the domain comes from the species named
Conditions: Homo sapiens

Abundance fitness, by site and new letter:
F28: Q -0.484 ± 0.13; R -0.75 ± 0.11; S -0.381 ± 0.095; T -0.049 ± 0.083; V -0.017 ± 0.054; W -0.095 ± 0.066; Y 0.23 ± 0.26
K29: A 0.014 ± 0.096; C -0.239 ± 0.27; D 0.11 ± 0.21; G -0.178 ± 0.074; H 0.071 ± 0.17; I 0.214 ± 0.21; L 0.008 ± 0.078; M 0.296 ± 0.19; N -0.138 ± 0.33; P -0.126 ± 0.2; Q -0.097 ± 0.12; R -0.123 ± 0.08; S 0.121 ± 0.11; T -0.066 ± 0.16; W -0.253 ± 0.19; Y -0.344 ± 0.42
R30: C -0.086 ± 0.19; D -0.032 ± 0.28; E -0.105 ± 0.14; F -0.032 ± 0.36; G -0.235 ± 0.072; I -0.163 ± 0.23; K -0.016 ± 0.38; M -0.148 ± 0.2; N -0.126 ± 0.17; Q -0.005 ± 0.13; S -0.086 ± 0.092; T -0.028 ± 0.13; V -0.216 ± 0.086; W -0.16 ± 0.096
T31: Q -0.167 ± 0.45; R -0.126 ± 0.22; V -0.061 ± 0.33
V32: A 0.211 ± 0.23; C -0.071 ± 0.36; E 0.101 ± 0.45; H -0.224 ± 0.27; K -0.532 ± 0.26; L -0.511 ± 0.41; R 0.256 ± 0.2; T 0.036 ± 0.34
Q33: K -0.035 ± 0.23; L -0.049 ± 0.25; R -0.252 ± 0.37
K34: C -0.033 ± 0.41; G 0.05 ± 0.12; R -0.243 ± 0.24; S -0.051 ± 0.21; V -0.037 ± 0.23; W -0.227 ± 0.49
N35: A 0.011 ± 0.068; C 0.141 ± 0.22; D 0.118 ± 0.12; E 0.071 ± 0.094; F -0.089 ± 0.35; H -0.13 ± 0.14; I -0.127 ± 0.27; K 0.033 ± 0.12; L -0.085 ± 0.087; M -0.173 ± 0.11; Q -0.081 ± 0.1; R -0.136 ± 0.088; S -0.198 ± 0.085; T -0.137 ± 0.13; V -0.487 ± 0.12; W -0.407 ± 0.12; Y -0.139 ± 0.15
A36: C -0.017 ± 0.14; D -0.019 ± 0.1; E -0.001 ± 0.11; F 0.458 ± 0.19; G -0.093 ± 0.071; K -0.291 ± 0.26; L 0.017 ± 0.097; M -0.093 ± 0.24; P -0.081 ± 0.3; Q -0.085 ± 0.24; S -0.095 ± 0.1; V -0.023 ± 0.079; W -0.057 ± 0.12
K37: A -0.197 ± 0.11; C -0.134 ± 0.25; D -0.07 ± 0.27; E -0.177 ± 0.18; F -0.362 ± 0.48; G -0.07 ± 0.073; H -0.124 ± 0.18; M 0.11 ± 0.16; P -0.008 ± 0.16; Q -0.041 ± 0.17; R -0.099 ± 0.081; S -0.213 ± 0.13; T 0.067 ± 0.15; V -0.118 ± 0.1; Y 0.019 ± 0.21
Y38: C -0.026 ± 0.49; H 0.149 ± 0.23; V -0.057 ± 0.39
V39: A -0.107 ± 0.17; E -0.058 ± 0.16; G -0.616 ± 0.18; L -0.153 ± 0.2; P 0.158 ± 0.23; Q -0.244 ± 0.31; R -0.055 ± 0.097; S 0.071 ± 0.13; W 0.017 ± 0.17; Y -0.309 ± 0.29
C40: R -0.799 ± 0.4; W -0.761 ± 0.31; Y 0.296 ± 0.32
L41: A -0.025 ± 0.29; E 0.064 ± 0.17; G -0.109 ± 0.11; H -0.069 ± 0.37; K -0.167 ± 0.25; M 0.039 ± 0.11; P 0.241 ± 0.27; Q -0.248 ± 0.27; R -0.064 ± 0.095; S -0.072 ± 0.16; T -0.08 ± 0.22; V 0.022 ± 0.15
A42: G -0.09 ± 0.28; I -0.183 ± 0.23; K 0.629 ± 0.5; M -0.208 ± 0.43; N -0.452 ± 0.49; R -0.255 ± 0.12; S 0.048 ± 0.17; T 0.002 ± 0.13; V -0.09 ± 0.14; W -0.305 ± 0.23
N43: A 0.245 ± 0.12; E -0.198 ± 0.16; F 0.046 ± 0.46; G -0.202 ± 0.12; I -0.231 ± 0.24; L -0.059 ± 0.14; M -0.173 ± 0.27; P -0.219 ± 0.21; Q -0.283 ± 0.29; R -0.014 ± 0.15; S -0.123 ± 0.15; T -0.505 ± 0.33; V -0.014 ± 0.1; W -0.011 ± 0.16
K44: A -0.265 ± 0.24; C -0.464 ± 0.21; D -0.093 ± 0.16; G -0.052 ± 0.09; H -0.129 ± 0.25; L -0.096 ± 0.16; M 0.037 ± 0.14; R -0.03 ± 0.12; T -0.028 ± 0.15; V -0.371 ± 0.21; W -0.126 ± 0.17; Y -0.053 ± 0.37
C46: A -1.16 ± 0.37; E -1.09 ± 0.46; G -0.897 ± 0.056; L -0.609 ± 0.1; M -0.993 ± 0.35; R -1.07 ± 0.22; S -0.754 ± 0.19; V -0.851 ± 0.077; W -1.03 ± 0.13
P47: A -0.033 ± 0.13; C -0.184 ± 0.081; D 0.106 ± 0.098; E -0.083 ± 0.17; F -0.183 ± 0.1; G -0.085 ± 0.037; I 0.009 ± 0.2; L -0.004 ± 0.063; M -0.239 ± 0.48; R -0.102 ± 0.092; S -0.076 ± 0.12; V -0.056 ± 0.049; W -0.215 ± 0.062
V48: A -0.409 ± 0.17; C -0.156 ± 0.067; F -0.407 ± 0.11; G -0.493 ± 0.041; L -0.175 ± 0.067; M -0.032 ± 0.27; R -0.449 ± 0.1; S -0.091 ± 0.17; W -0.258 ± 0.05
D49: A -0.135 ± 0.084; C -0.67 ± 0.14; E 0.033 ± 0.097; F -0.204 ± 0.092; G -0.073 ± 0.035; L -0.222 ± 0.078; M -0.11 ± 0.37; R -0.22 ± 0.073; T 0.013 ± 0.23; V -0.326 ± 0.049; W -0.21 ± 0.062; Y -0.148 ± 0.27
K50: A -0.098 ± 0.088; C -0.115 ± 0.074; D -0.215 ± 0.17; E 0.175 ± 0.15; F -0.055 ± 0.094; G -0.045 ± 0.037; L -0.155 ± 0.073; P 0.356 ± 0.29; R -0.193 ± 0.082; S -0.001 ± 0.097; T 0.102 ± 0.24; W -0.031 ± 0.057; Y 0.024 ± 0.13
R51: C -0.188 ± 0.09; E 0.082 ± 0.12; F 0.064 ± 0.096; G -0.001 ± 0.034; L 0.042 ± 0.056; M 0.019 ± 0.3; T 0.166 ± 0.21; V -0.035 ± 0.041; W 0.054 ± 0.051; Y -0.109 ± 0.17
R52: A 0.025 ± 0.083; C -0.061 ± 0.071; D 0.002 ± 0.12; E 0 ± 0.094; F -0.08 ± 0.094; G 0.065 ± 0.036; K 0.041 ± 0.13; L -0.043 ± 0.057; M -0.021 ± 0.1; S -0.31 ± 0.14; V -0.021 ± 0.043; W 0.01 ± 0.063; Y 0.204 ± 0.47
R53: A 0.078 ± 0.11; C -0.078 ± 0.061; D -0.175 ± 0.18; E -0.034 ± 0.12; F -0.101 ± 0.088; G 0.06 ± 0.037; I -0.043 ± 0.22; L -0.12 ± 0.061; M -0.28 ± 0.25; Q 0.172 ± 0.3; S 0.084 ± 0.084; V 0.019 ± 0.042; Y -0.3 ± 0.37
N54: A -0.148 ± 0.14; C -0.472 ± 0.11; D 0.135 ± 0.2; E -0.244 ± 0.24; F -0.143 ± 0.12; G 0.06 ± 0.038; I 0.164 ± 0.43; L -0.123 ± 0.065; P -0.34 ± 0.43; Q -0.032 ± 0.24; R -0.15 ± 0.11; S 0.148 ± 0.091; T -0.555 ± 0.47; V -0.094 ± 0.052; W -0.015 ± 0.061
R55: A -0.134 ± 0.081; C -0.028 ± 0.076; D -0.065 ± 0.13; E -0.035 ± 0.12; G -0.023 ± 0.035; L 0.035 ± 0.06; M -0.089 ± 0.12; S -0.164 ± 0.1; V 0.024 ± 0.04; W -0.026 ± 0.054; Y 0.038 ± 0.16
C56: A -0.941 ± 0.28; D -0.707 ± 0.37; E -0.894 ± 0.33; F -1.21 ± 0.38; G -1.05 ± 0.073; L -1.09 ± 0.23; R -1.06 ± 0.19; S -0.667 ± 0.23; V -1.05 ± 0.11; W -0.908 ± 0.097
Q57: A 0.068 ± 0.097; E -0.083 ± 0.11; F -0.177 ± 0.13; L -0.034 ± 0.065; M 0.463 ± 0.35; P 0.187 ± 0.25; R -0.289 ± 0.11; S 0.083 ± 0.12; V -0.126 ± 0.054; W -0.28 ± 0.074; Y -0.158 ± 0.19
Y58: A 0.041 ± 0.085; C -0.173 ± 0.064; D -0.123 ± 0.17; E -0.055 ± 0.16; F 0.051 ± 0.11; G -0.298 ± 0.041; L -0.441 ± 0.079; R -0.345 ± 0.12; S 0.129 ± 0.078; V -0.761 ± 0.075; W -0.063 ± 0.052
C59: A -0.549 ± 0.12; E -0.318 ± 0.29; F -1.03 ± 0.22; R -1.17 ± 0.2; V -0.919 ± 0.096; W -1.33 ± 0.22
R60: C 0.101 ± 0.066; E -0.651 ± 0.18; F -0.115 ± 0.12; G -0.648 ± 0.052; I -0.355 ± 0.3; L 0.047 ± 0.071; M 0.053 ± 0.14; S -0.033 ± 0.092; V 0.01 ± 0.044; W 0.014 ± 0.05
F61: C -0.701 ± 0.099; D -0.745 ± 0.24
